From the RNAGym collection of RNA variant scans (doi:10.1073/pnas.2313332121)

B1: TPR t1 (parent)
chain: GACCAAUCUGCCCUCAGAGCUCGAGAACAUCUUCGGAUGCAGAGGAGGCAGGCUUCGGUGGCGCGAUAGCGCCAACGUCCUCAACCUCCAAUGCAUCCCACCACAUGAUGAUGCCUGAAGAGCCUUGGUUUUUUG

Variants of: B1
Assay: polymerase ribozyme fitness, log enrichment relative to wild type (log ratio); higher = more active; in vitro selection for triplet polymerase activity
How it was run: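 Each subunit of a heterodimeric triplet polymerase ribozyme was mutagenized into a library by PCR, transcribed, and subjected to one round of in vitro selection, run in triplicate. Libraries were annealed with a biotinylated primer, the partner subunit and triplets, incubated frozen at −7 °C, and extended constructs were gel-excised, captured on streptavidin beads and recovered by RT-PCR. Input and output libraries were sequenced on Illumina, keeping genotypes with ≥10 input reads and ≥1 read per output. Fitness is log base 2 of genotype enrichment divided by wild-type enrichment, from inverse-variance-weighted replicate averages.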

U9G U14G G93A and G10A C49U are within 0.2 log units of each other in “polymerase ribozyme fitness (log ratio)” value: -0.26 for the first, -0.363 for the second.

Going from C11A A105C to G10U C11U, the “polymerase ribozyme fitness (log ratio)” value rises from -3.07 to 0.0495.

Going from G10C C73A to G10A G45A G63U C82A C85A U92C, the “polymerase ribozyme fitness (log ratio)” value falls from -1.86 to -5.42.

Compared with U9G G17A A18U A46U A84G U87A U112C G127C U134A, U9C U96A is higher in “polymerase ribozyme fitness (log ratio)” value: -2.66 for the first, 0.079 for the second.

First: G10C A27G C40U A121U
Second: U9G C97A
The “polymerase ribozyme fitness (log ratio)” value of the first is higher: 0.906 for the first, -4.53 for the second.

Going from U9G C70A C76U to G10A G42U C85G, the “polymerase ribozyme fitness (log ratio)” value rises from -3.45 to -1.94.

Going from U9G G48U to U9C U59C A84U C104A C114U, the “polymerase ribozyme fitness (log ratio)” value falls from -1.27 to -4.8.

Going from G10A U33G to U9G C99A, the “polymerase ribozyme fitness (log ratio)” value falls from -4.61 to -5.82.

Going from G10A G47A A68G U109C C123G to U9G U30C G120C G127A, the “polymerase ribozyme fitness (log ratio)” value rises from -6.84 to -3.41.

Compared with U9G A37C C40U C72U C123A, U9G G57A C79A is lower in “polymerase ribozyme fitness (log ratio)” value: -0.161 for the first, -1.03 for the second.

G10U G63A U112A and U9G G60U C62U are within 0.2 log units of each other in “polymerase ribozyme fitness (log ratio)” value: -0.981 for the first, -1.11 for the second.

First: U9C C53A C123G
Second: G10U A18U C40A C56G
The “polymerase ribozyme fitness (log ratio)” value of the first is higher: 1.78 for the first, -4.94 for the second.

Going from G10U G71A A103U C114U to U9G C115G, the “polymerase ribozyme fitness (log ratio)” value rises from -4.96 to 1.35.

First: U9G A26U C72U
Second: U9G C85U
The “polymerase ribozyme fitness (log ratio)” value of the first is lower: -2.22 for the first, -0.222 for the second.

Compared with G10U U106A, U9G G36U G57U C62U is lower in “polymerase ribozyme fitness (log ratio)” value: 0.263 for the first, -1.11 for the second.

First: U9C U78C
Second: G10A C73U U116C
The “polymerase ribozyme fitness (log ratio)” value of the first is higher: 0.403 for the first, -1.59 for the second.

Compared with G10C G42U G48A, G10U G17A is lower in “polymerase ribozyme fitness (log ratio)” value: -2.39 for the first, -3.07 for the second.

First: U9G G45A C49U C72U G93A
Second: U9C G48U G52C C94U
The “polymerase ribozyme fitness (log ratio)” value of the first is higher: -1.56 for the first, -2.36 for the second.

First: G10U A24G G58C C79U
Second: G10U G39A C98U
The “polymerase ribozyme fitness (log ratio)” value of the first is lower: -2.27 for the first, -1.4 for the second.

Compared with U9C G17A A18G G69U G113U, G10C C85U is higher in “polymerase ribozyme fitness (log ratio)” value: -4.32 for the first, -1.64 for the second.

Going from U9G A18C G117C to U9G G39A A121U U131C, the “polymerase ribozyme fitness (log ratio)” value rises from 0.268 to 2.2.

Going from G10U G57A G60A to G10A C13U U30C C31A G42U C123A U126G, the “polymerase ribozyme fitness (log ratio)” value falls from -0.571 to -5.09.

Going from U9C C53U A83C to G10A C70U A121U, the “polymerase ribozyme fitness (log ratio)” value rises from 0.688 to 1.19.

First: G10C C12U U14A G71U G107U
Second: U9G G69C A105U U112G
The “polymerase ribozyme fitness (log ratio)” value of the first is lower: -5.41 for the first, -4.11 for the second.

First: G10U G48U G93A C123G
Second: G10A U129A
The “polymerase ribozyme fitness (log ratio)” value of the first is higher: 0.384 for the first, -1.14 for the second.

Going from G10U C40U A41G A46C C64U to G10C U32C G52A U112A G128A, the “polymerase ribozyme fitness (log ratio)” value rises from -5.98 to -2.52.

U9G G39C G42U C64U and G10A C11G C70G are within 0.2 log units of each other in “polymerase ribozyme fitness (log ratio)” value: -2 for the first, -2.13 for the second.

Compared with G10A A41U C53U U78G C89A A105U G120U, U9C U92A C114A is higher in “polymerase ribozyme fitness (log ratio)” value: -5.97 for the first, -1.69 for the second.

Going from G10A C12U G19U C85U C123U to G10U C94U C101A C104A, the “polymerase ribozyme fitness (log ratio)” value falls from -1.68 to -3.21.

Compared with U9C C56A, U9C C56G is higher in “polymerase ribozyme fitness (log ratio)” value: -0.0544 for the first, 0.559 for the second.

First: U9G G71U
Second: G10A G61U A100C G135U
The “polymerase ribozyme fitness (log ratio)” value of the first is higher: 0.107 for the first, -1.17 for the second.

First: G10U C22G A50C A118G
Second: U9G C12G C28G C40A C85A A90C C104A G110C
The “polymerase ribozyme fitness (log ratio)” value of the first is lower: -5.56 for the first, -4.42 for the second.

Going from G10A A29C to U9G U96G, the “polymerase ribozyme fitness (log ratio)” value rises from -1.99 to -0.204.

Going from G10A C114G G135A to U9G C11G C94U, the “polymerase ribozyme fitness (log ratio)” value falls from -3.42 to -4.64.

Going from U9G U54A C97G U131C to G10U A27U C76G U109G, the “polymerase ribozyme fitness (log ratio)” value falls from -4.7 to -5.77.

Compared with U9G G65A C72G G122A C123G U129G, U9G G42A A105U is higher in “polymerase ribozyme fitness (log ratio)” value: -5.67 for the first, -4.37 for the second.

Going from G10A A95U G122A to C11A C20U C34A C53A C94G A121U, the “polymerase ribozyme fitness (log ratio)” value falls from 0.0165 to -3.61.

Compared with C11A A41C G58A U96A, U9G G10A U14G A46G G48A A66G is higher in “polymerase ribozyme fitness (log ratio)” value: -3.23 for the first, -2.94 for the second.

First: G10A C13G C22G A37C C72A A95U
Second: G10U G19C A37U C72A C73U C123G U130C
The “polymerase ribozyme fitness (log ratio)” value of the first is lower: -4.63 for the first, -2.79 for the second.

First: G10C C114U
Second: U9G A66U C80A C85U
The “polymerase ribozyme fitness (log ratio)” value of the first is higher: -2.38 for the first, -5.32 for the second.

Going from G10A G63C to U9C C53G C114U U116A C123A U130C, the “polymerase ribozyme fitness (log ratio)” value falls from -0.414 to -7.66.

First: G10C C34A
Second: C11A C12A G71A C89G A90G C101U U133G
The “polymerase ribozyme fitness (log ratio)” value of the first is higher: -3.12 for the first, -4.22 for the second.
